Experimental data: US20140357577A1, “HIV Membrane Fusion Inhibitors” (priority 2011, published 2014)
Starred links: 1 amine or outer side, 2 acyl side, 3 side chain; linkers in the order of their positions; H or OH if unused. Positions of bridges follow the written chain, without caps; N, C: chain ends. Non-standard residues stand in square brackets, D forms with d. *: point of attachment. pXylylene = c1cc(C[*:2])ccc1C[*:1]; Suc = O=C(CCC(=O)[*:2])[*:1]; Nva = CCC[C@H](N)C(=O)O; Abu = CC[C@H](N)C(=O)O; Hexanoyl = CCCCCC(=O)*; Pentanoyl = CCCCC(=O)*; B1 = not defined here

B1: peptide 43 (peptide)
peptide: Suc-ACYLACIEALIRAAQEQQEKNEAALR-NH2
modifications: linker 2-6 via B1; reading uncertain
B2: peptide 42 (peptide)
peptide: Hexanoyl-ECYLACIEELIRKAQEQQEKNEAALR-NH2
modifications: linker 2-6 via B1; reading uncertain
B3: peptide 48 (peptide)
peptide: Ac-ACYLACIEALIRKAQEQQEKNEAALR-NH2
modifications: linker 2-6 via B1; reading uncertain
B4: peptide 45 (peptide)
peptide: Ac-ECYLACIEALIRAAQEQQEKNEAALR-NH2
modifications: linker 2-6 via B1; reading uncertain
B5: peptide 52 (peptide)
peptide: Pentanoyl-ENYLALIEELIRKAQEQQEKNEAALR-NH2
SMILES: CCCCC(=O)N[C@@H](CCC(=O)O)C(=O)N[C@@H](CC(N)=O)C(=O)N[C@@H](Cc1ccc(O)cc1)C(=O)N[C@@H](CC(C)C)C(=O)N[C@@H](C)C(=O)N[C@@H](CC(C)C)C(=O)N[C@H](C(=O)N[C@@H](CCC(=O)O)C(=O)N[C@@H](CCC(=O)O)C(=O)N[C@@H](CC(C)C)C(=O)N[C@H](C(=O)N[C@@H](CCCNC(=N)N)C(=O)N[C@@H](CCCCN)C(=O)N[C@@H](C)C(=O)N[C@@H](CCC(N)=O)C(=O)N[C@@H](CCC(=O)O)C(=O)N[C@@H](CCC(N)=O)C(=O)N[C@@H](CCC(N)=O)C(=O)N[C@@H](CCC(=O)O)C(=O)N[C@@H](CCCCN)C(=O)N[C@@H](CC(N)=O)C(=O)N[C@@H](CCC(=O)O)C(=O)N[C@@H](C)C(=O)N[C@@H](C)C(=O)N[C@@H](CC(C)C)C(=O)N[C@@H](CCCNC(=N)N)C(N)=O)[C@@H](C)CC)[C@@H](C)CC
B6: peptide 53 (peptide)
peptide: Ac-ECYAACIEELIRKAQEQQEKNEAALR-NH2
modifications: linker 2-6 via pXylylene
SMILES: CC[C@H](C)[C@H](NC(=O)[C@@H]1CSCc2ccc(cc2)CSC[C@H](NC(=O)[C@H](CCC(=O)O)NC(C)=O)C(=O)N[C@@H](Cc2ccc(O)cc2)C(=O)N[C@@H](C)C(=O)N[C@@H](C)C(=O)N1)C(=O)N[C@@H](CCC(=O)O)C(=O)N[C@@H](CCC(=O)O)C(=O)N[C@@H](CC(C)C)C(=O)N[C@H](C(=O)N[C@@H](CCCNC(=N)N)C(=O)N[C@@H](CCCCN)C(=O)N[C@@H](C)C(=O)N[C@@H](CCC(N)=O)C(=O)N[C@@H](CCC(=O)O)C(=O)N[C@@H](CCC(N)=O)C(=O)N[C@@H](CCC(N)=O)C(=O)N[C@@H](CCC(=O)O)C(=O)N[C@@H](CCCCN)C(=O)N[C@@H](CC(N)=O)C(=O)N[C@@H](CCC(=O)O)C(=O)N[C@@H](C)C(=O)N[C@@H](C)C(=O)N[C@@H](CC(C)C)C(=O)N[C@@H](CCCNC(=N)N)C(N)=O)[C@@H](C)CC
B7: peptide 46 (peptide)
peptide: Suc-ACYLACIEALIRA[Nva]QEQQEKNEAALR-NH2
modifications: linker 2-6 via B1; reading uncertain
B8: peptide 47 (peptide)
peptide: Suc-ACYLACIEALIRA[Abu]QEQQEKNEAALR-NH2
modifications: linker 2-6 via B1; reading uncertain
B9: peptide 1 (peptide)
peptide: Suc-ANYLALIEALIRAAQEQQEKNEAAL-NH2
SMILES: CC[C@H](C)[C@H](NC(=O)[C@H](CC(C)C)NC(=O)[C@H](C)NC(=O)[C@H](CCC(=O)O)NC(=O)[C@@H](NC(=O)[C@H](CC(C)C)NC(=O)[C@H](C)NC(=O)[C@H](CC(C)C)NC(=O)[C@H](Cc1ccc(O)cc1)NC(=O)[C@H](CC(N)=O)NC(=O)[C@H](C)NC(=O)CCC(=O)O)[C@@H](C)CC)C(=O)N[C@@H](CCCNC(=N)N)C(=O)N[C@@H](C)C(=O)N[C@@H](C)C(=O)N[C@@H](CCC(N)=O)C(=O)N[C@@H](CCC(=O)O)C(=O)N[C@@H](CCC(N)=O)C(=O)N[C@@H](CCC(N)=O)C(=O)N[C@@H](CCC(=O)O)C(=O)N[C@@H](CCCCN)C(=O)N[C@@H](CC(N)=O)C(=O)N[C@@H](CCC(=O)O)C(=O)N[C@@H](C)C(=O)N[C@@H](C)C(=O)N[C@@H](CC(C)C)C(N)=O
B10: peptide 44 (peptide)
peptide: Suc-ACY[Nva]ACIEALIRAAQEQQEKNEAALR-NH2
modifications: linker 2-6 via B1; reading uncertain
B11: peptide 49 (peptide)
peptide: Suc-ACY[Abu]ACIEALIRAAQEQQEKNEAALR-NH2
modifications: linker 2-6 via B1; reading uncertain
B12: peptide 50 (peptide)
peptide: Ac-ECYLRCIEALIRAAQEQQEKNEAALR-NH2
modifications: linker 2-6 via pXylylene
SMILES: CC[C@H](C)[C@H](NC(=O)[C@H](CC(C)C)NC(=O)[C@H](C)NC(=O)[C@H](CCC(=O)O)NC(=O)[C@@H](NC(=O)[C@@H]1CSCc2ccc(cc2)CSC[C@H](NC(=O)[C@H](CCC(=O)O)NC(C)=O)C(=O)N[C@@H](Cc2ccc(O)cc2)C(=O)N[C@@H](CC(C)C)C(=O)N[C@@H](CCCNC(=N)N)C(=O)N1)[C@@H](C)CC)C(=O)N[C@@H](CCCNC(=N)N)C(=O)N[C@@H](C)C(=O)N[C@@H](C)C(=O)N[C@@H](CCC(N)=O)C(=O)N[C@@H](CCC(=O)O)C(=O)N[C@@H](CCC(N)=O)C(=O)N[C@@H](CCC(N)=O)C(=O)N[C@@H](CCC(=O)O)C(=O)N[C@@H](CCCCN)C(=O)N[C@@H](CC(N)=O)C(=O)N[C@@H](CCC(=O)O)C(=O)N[C@@H](C)C(=O)N[C@@H](C)C(=O)N[C@@H](CC(C)C)C(=O)N[C@@H](CCCNC(=N)N)C(N)=O
B13: peptide 51 (peptide)
peptide: Ac-ACYLACIEALIRRAQEQQEKNEAALR-NH2
modifications: linker 2-6 via pXylylene
SMILES: CC[C@H](C)[C@H](NC(=O)[C@@H]1CSCc2ccc(cc2)CSC[C@H](NC(=O)[C@H](C)NC(C)=O)C(=O)N[C@@H](Cc2ccc(O)cc2)C(=O)N[C@@H](CC(C)C)C(=O)N[C@@H](C)C(=O)N1)C(=O)N[C@@H](CCC(=O)O)C(=O)N[C@@H](C)C(=O)N[C@@H](CC(C)C)C(=O)N[C@H](C(=O)N[C@@H](CCCNC(=N)N)C(=O)N[C@@H](CCCNC(=N)N)C(=O)N[C@@H](C)C(=O)N[C@@H](CCC(N)=O)C(=O)N[C@@H](CCC(=O)O)C(=O)N[C@@H](CCC(N)=O)C(=O)N[C@@H](CCC(N)=O)C(=O)N[C@@H](CCC(=O)O)C(=O)N[C@@H](CCCCN)C(=O)N[C@@H](CC(N)=O)C(=O)N[C@@H](CCC(=O)O)C(=O)N[C@@H](C)C(=O)N[C@@H](C)C(=O)N[C@@H](CC(C)C)C(=O)N[C@@H](CCCNC(=N)N)C(N)=O)[C@@H](C)CC
B14: peptide 41 (peptide)
peptide: Pentanoyl-ECYLACIEELIRKAQEQQEKNEAALR-NH2
modifications: linker 2-6 via B1; reading uncertain

molecular target: gp41 of HIV-1 strain HXB2D with mutation V38A (HIV-1 strain HXB2D, UniProt P04578); assay: cell-based or functional assay

Going from B1 to B2, the “fold change in EC50, HIV-HXB2D V38A mutant” value (from here on “fold change in EC50”) falls from 19 fold to 2 fold.

Going from B3 to B4, the “fold change in EC50” value rises from 10 fold to 14 fold.

First: B5
Second: B6
The “fold change in EC50” value of the first is lower: 5 fold for the first, 34 fold for the second.

Going from B7 to B8, the “fold change in EC50” value rises from 6 fold to 17 fold.

First: B9
Second: B10
The “fold change in EC50” value of the first is higher: 57 fold for the first, 15 fold for the second.

Compared with B11, B12 is lower in “fold change in EC50” value: 33 fold for the first, 12 fold for the second.

First: B13
Second: B14
The “fold change in EC50” value of the first is higher: 10 fold for the first, 2 fold for the second.
